Measured values as given in IntAct's records for PubMed 11473260.

B1: SAGA complex/transcription factor TFIID complex subunit TAF12 (Saccharomyces cerevisiae), Q03761 (parent)
chain: MSSNPENSGVNANNNTGTGNADAITGAQQNMVLQPRQLQEMAAKFRTLLTEARNVGETTPRGKELMFQAAKIKQVYDALTLNRRRQQAAQAYNNTSNSNSSNPASIPTENVPNSSQQQQQQQQQTRNNSNKFSNMIKQVLTPEENQEYEKLWQNFQVRHTSIKEKETYLKQNIDRLEQEINKQTDEGPKQQLQEKKIELLNDWKVLKIEYTKLFNNYQNSKKTFYVECARHNPALHKFLQESTQQQRVQQQRVQQQQQQQQQQQQQQQQQQQQQQQRQGQNQRKISSSNSTEIPSVTGPDALKSQQQQQNTITATNNPRGNVNTSQTEQSKAKVTNVNATASMLNNISSSKSAIFKQTEPAIPISENISTKTPAPVAYRSNRPTITGGSAMNASALNTPATTKLPPYEMDTQRVMSKRKLRELVKTVGIDEGDGETVIDGDVEELLLDLADDFVTNVTAFSCRLAKHRKSDNLEARDIQLHLERNWNIRIPGYSADEIRSTRKWNPSQNYNQKLQSITSDKVAAAKNNGNNVASLNTKK
partner: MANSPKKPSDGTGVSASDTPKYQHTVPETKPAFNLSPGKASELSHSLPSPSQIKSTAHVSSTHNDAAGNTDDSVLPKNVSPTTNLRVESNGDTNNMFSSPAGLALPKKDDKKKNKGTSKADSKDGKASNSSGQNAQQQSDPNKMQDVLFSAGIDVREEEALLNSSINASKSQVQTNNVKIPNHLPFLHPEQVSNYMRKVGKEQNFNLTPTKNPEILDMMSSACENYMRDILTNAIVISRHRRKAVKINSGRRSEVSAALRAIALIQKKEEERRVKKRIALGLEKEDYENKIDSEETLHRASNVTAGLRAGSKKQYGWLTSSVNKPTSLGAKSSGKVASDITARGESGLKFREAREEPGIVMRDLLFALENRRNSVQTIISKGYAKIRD

Variants of: B1
Conditions: with taf4_yeast TAF4, P50105

effect of a mutation on the interaction	Variant
disrupting interaction	L449A
disrupting interaction	L446A
